Measurements taken from the supplement of paper PMC11246515.
± gives the standard deviation of the averaged measurements.

Test: total protein half-life in vivo (active degradation + dilution); higher = more stable protein
[1] = wild type E. coli NCM3722, growth: C-lim chemostat, doubling time 3 h
[2] = wild type E. coli NCM3722, growth: C-lim chemostat, doubling time 6 h
[3] = wild type E. coli NCM3722, growth: C-lim chemostat, doubling time 12 h
[4] = E. coli NCM3722 delta-clpP delta-lon delta-hslV, growth: N-lim chemostat, doubling time 6 h
[5] = E. coli NCM3722 delta-clpP, growth: N-lim chemostat, doubling time 6 h
[6] = E. coli NCM3722 delta-hslV, growth: N-lim chemostat, doubling time 6 h
[7] = E. coli NCM3722 delta-lon, growth: N-lim chemostat, doubling time 6 h
[8] = E. coli NCM3722 delta-smpB, growth: N-lim chemostat, doubling time 6 h
[9] = wild type E. coli NCM3722, growth: N-lim chemostat, doubling time 6 h
[10] = wild type E. coli NCM3722, growth: N-lim chemostat, doubling time 12 h
[11] = wild type E. coli NCM3722, growth: P-lim chemostat, doubling time 6 h
[12] = wild type E. coli NCM3722, growth: P-lim chemostat, doubling time 12 h

| Sequence | total protein half-life in vivo [1] [h] | total protein half-life in vivo [2] [h] | total protein half-life in vivo [3] [h] | total protein half-life in vivo [4] [h] | total protein half-life in vivo [5] [h] | total protein half-life in vivo [6] [h] | total protein half-life in vivo [7] [h] | total protein half-life in vivo [8] [h] | total protein half-life in vivo [9] [h] | total protein half-life in vivo [10] [h] | total protein half-life in vivo [11] [h] | total protein half-life in vivo [12] [h] |
| --- | --- | --- | --- | --- | --- | --- | --- | --- | --- | --- | --- | --- |
| MNLWQQNYDPAGNIWLSSLIASLPILFFFFALIKLKLKGYVAASWTVAIALAVALLFYKMPVANALASVVYGFFYGLWPIAWIIIAAVFVYKISVKTGQFDIIRSSILSITPDQRLQMLIVGFCFGAFLEGAAGFGAPVAITAALLVGLGFKPLYAAGLCLIVNTAPVAFGAMGIPILVAGQVTGIDSFEIGQMVGRQLPFMTIIVLFWIMAIMDGWRGIKETWPAVVVAGGSFAIAQYLSSNFIGPELPDIISSLVSLLCLTLFLKRWQPVRVFRFGDLGASQVDMTLAHTGYTAGQVLRAWTPFLFLTATVTLWSIPPFKALFASGGALYEWVINIPVPYLDKLVARMPPVVSEATAYAAVFKFDWFSATGTAILFAALLSIVWLKMKPSDAISTFGSTLKELALPIYSIGMVLAFAFISNYSGLSSTLALALAHTGHAFTFFSPFLGWLGVFLTGSDTSSNALFAALQATAAQQIGVSDLLLVAANTTGGVTGKMISPQSIAIACAAVGLVGKESDLFRFTVKHSLIFTCIVGVITTLQAYVLTWMIP | 1.79 | 1.93 | 2.6 ± 0.12 | – | – | – | – | – | – | – | – | – |
| MSFFHASQRDALNQSLAEVQGQINVSFEFFPPRTSEMEQTLWNSIDRLSSLKPKFVSVTYGANSGERDRTHSIIKGIKDRTGLEAAPHLTCIDATPDELRTIARDYWNNGIRHIVALRGDLPPGSGKPEMYASDLVTLLKEVADFDISVAAYPEVHPEAKSAQADLLNLKRKVDAGANRAITQFFFDVESYLRFRDRCVSAGIDVEIIPGILPVSNFKQAKKFADMTNVRIPAWMAQMFDGLDDDAETRKLVGANIAMDMVKILSREGVKDFHFYTLNRAEMSYAICHTLGVRPGL [P0AEZ1] | 2.99 ± 0.18 | 4.97 ± 0.25 | 8.59 ± 0.26 | 3.64 ± 0.65 | 3.18 ± 0.53 | 2.96 ± 0.52 | 3.54 ± 0.14 | 3.16 ± 0.31 | 3.02 ± 0.1 | 4.47 ± 0.053 | 5.51 ± 0.12 | 10.7 ± 0.34 |
| MNTALAQQIANEGGVEAWMIAQQHKSLLRFLTCGSVDDGKSTLIGRLLHDTRQIYEDQLSSLHNDSKRHGTQGEKLDLALLVDGLQAEREQGITIDVAYRYFSTEKRKFIIADTPGHEQYTRNMATGASTCELAILLIDARKGVLDQTRRHSFISTLLGIKHLVVAINKMDLVDYSEETFTRIREDYLTFAGQLPGNLDIRFVPLSALEGDNVASQSESMPWYSGPTLLEVLETVEIQRVVDAQPMRFPVQYVNRPNLDFRGYAGTLASGRVEVGQRVKVLPSGVESNVARIVTFDGDREEAFAGEAITLVLTDEIDISRGDLLLAADEALPAVQSASVDVVWMAEQPLSPGQSYDIKIAGKKTRARVDGIRYQVDINNLTQREVENLPLNGIGLVDLTFDEPLVLDRYQQNPVTGGLIFIDRLSNVTVGAGMVHEPVSQATAAPSEFSAFELELNALVRRHFPHWGARDLLGDK | 1.58 ± 0.051 | 1.61 ± 0.17 | 2.08 ± 0.23 | 4.99 ± 0.27 | 4.67 ± 0.42 | 1.18 ± 0.2 | 1.23 ± 0.018 | 1.13 ± 0.045 | 1.29 ± 0.057 | 1.39 ± 0.11 | 1.67 ± 0.47 | 2.32 ± 0.57 |
| MSETAKKVIVGMSGGVDSSVSAWLLQQQGYQVEGLFMKNWEEDDGEEYCTAAADLADAQAVCDKLGIELHTVNFAAEYWDNVFELFLAEYKAGRTPNPDILCNKEIKFKAFLEFAAEDLGADYIATGHYVRRADVDGKSRLLRGLDSNKDQSYFLYTLSHEQIAQSLFPVGELEKPQVRKIAEDLGLVTAKKKDSTGICFIGERKFREFLGRYLPAQPGKIITVDGDEIGEHQGLMYHTLGQRKGLGIGGTKEGTEEPWYVVDKDVENNILVVAQGHEHPRLMSVGLIAQQLHWVDREPFTGTMRCTVKTRYRQTDIPCTVKALDDDRIEVIFDEPVAAVTPGQSAVFYNGEVCLGGGIIEQRLPLPV | 2.89 ± 0.46 | 7.28 ± 0.86 | 10.4 ± 1.7 | 4.81 ± 0.17 | 4.73 ± 0.56 | 4.73 ± 0.06 | 5.33 ± 0.43 | 4.71 ± 0.32 | 4.77 ± 0.39 | 8.691 ± 0.075 | 5.5 ± 0.061 | 12 ± 1.4 |
| MRTTSFAKVAALCGLLALSGCASKITQPDKYSGFLNNYSDLKETTSATGKPVLRWVDPSFDQSKYDSIVWNPITYYPVPKPSTQVGQKVLDKILNYTNTEMKEAIAQRKPLVTTAGPRSLIFRGAITGVDTSKEGLQFYEVVPVALVVAGTQMATGHRTMDTRLYFEGELIDAATNKPVIKVVRQGEGKDLNNESTPMAFENIKQVIDDMATDATMFDVNKK | 3.33 ± 0.073 | 6.02 ± 0.91 | 10.3 ± 0.9 | 5.89 ± 0.069 | – | 6.47 ± 0.16 | – | 5.98 ± 0.26 | 6.07 ± 0.31 | 12.8 ± 0.57 | 5.82 ± 0.2 | 13 ± 0.29 |
| MSLLAQLDQKIAANGGLIVSCQPVPDSPLDKPEIVAAMALAAEQAGAVAIRIEGVANLQATRAVVSVPIIGIVKRDLEDSPVRITAYIEDVDALAQAGADIIAIDGTDRPRPVPVETLLARIHHHGLLAMTDCSTPEDGLACQKLGAEIIGTTLSGYTTPETPEEPDLALVKTLSDAGCRVIAEGRYNTPAQAADAMRHGAWAVTVGSAITRLEHICQWYNTAMKKAVL [P0A761] | 2.9 ± 0.27 | 5.06 ± 0.56 | 10.3 ± 1.4 | – | 5.64 | 3.95 | 4.21 ± 0.027 | 4.27 | 4.14 ± 0.36 | 7.56 | 5.84 ± 1 | 9.47 ± 0.41 |
| MAQIDFRKKINWHRRYRSPQGVKTEHEILRIFESDRGRIINSPAIRRLQQKTQVFPLERNAAVRTRLTHSMEVQQVGRYIAKEILSRLKELKLLEAYGLDELTGPFESIVEMSCLMHDIGNPPFGHFGEAAINDWFRQRLHPEDAESQPLTDDRCSVAALRLRDGEEPLNELRRKIRQDLCHFEGNAQGIRLVHTLMRMNLTWAQVGGILKYTRPAWWRGETPETHHYLMKKPGYYLSEEAYIARLRKELNLALYSRFPLTWIMEAADDISYCVADLEDAVEKRIFTVEQLYHHLHEAWGQHEKGSLFSLVVENAWEKSRSNSLSRSTEDQFFMYLRVNTLNKLVPYAAQRFIDNLPAIFAGTFNHALLEDASECSDLLKLYKNVAVKHVFSHPDVERLELQGYRVISGLLEIYRPLLSLSLSDFTELVEKERVKRFPIESRLFHKLSTRHRLAYVEAVSKLPSDSPEFPLWEYYYRCRLLQDYISGMTDLYAWDEYRRLMAVEQ | 3.281 ± 0.016 | 6.17 ± 0.39 | 11.6 ± 0.46 | 5.23 ± 0.2 | 5.726 ± 0.025 | 6.52 ± 1.8 | 5.63 ± 0.46 | 5.16 ± 0.065 | 6.14 ± 1.6 | 11 ± 0.68 | 5.52 ± 0.37 | 12.2 ± 0.22 |
| MNNTPRYPQRVRNDLRFRELTVLRVERISAGFQRIVLGGEALDGFTSRGFDDHSKLFFPQPDAHFVPPTVTEEGIVWPEGPRPPSRDYTPLYDELRHELAIDFFIHDGGVASGWAMQAQPGDKLTVAGPRGSLVVPEDYAYQLYVCDESGMPALRRRLETLSKLAVKPQVSALVSVRDNACQDYLAHLDGFNIEWLAHDEQAVDARLAQMQIPADDYFIWITGEGKVVKNLSRRFEAEQYDPQRVRAAAYWHAK | 3.36 ± 0.12 | 6.21 ± 1.1 | 9.46 ± 0.69 | 4.98 ± 0.54 | 3.77 ± 0.45 | 4.7 ± 0.13 | 5.34 ± 0.58 | 4.11 ± 1.2 | 4.38 ± 0.69 | 7.07 | 5.663 ± 0.053 | 12.1 ± 0.45 |
| MLRFLNQCSQGRGAWLLMAFTALALELTALWFQHVMLLKPCVLCIYERCALFGVLGAALIGAIAPKTPLRYVAMVIWLYSAFRGVQLTYEHTMLQLYPSPFATCDFMVRFPEWLPLDKWVPQVFVASGDCAERQWDFLGLEMPQWLLGIFIAYLIVAVLVVISQPFKAKKRDLFGR [P0A6M2] | – | – | – | – | 6.09 | – | > 8 | – | 6.88 | 9.57 | 5.52 | – |
| MANGWTGNILRVNLTTGNITLEDSSKFKSFVGGMGFGYKIMYDEVPPGTKPFDEANKLVFATGPLTGSGAPCSSRVNITSLSTFTKGNLVVDAHMGGFFAAQMKFAGYDVIIIEGKAKSPVWLKIKDDKVSLEKADFLWGKGTRATTEEICRLTSPETCVAAIGQAGENLVPLSGMLNSRNHSGGAGTGAIMGSKNLKAIAVEGTKGVNIADRQEMKRLNDYMMTELIGANNNHVVPSTPQSWAEYSDPKSRWTARKGLFWGAAEGGPIETGEIPPGNQNTVGFRTYKSVFDLGPAAEKYTVKMSGCHSCPIRCMTQMNIPRVKEFGVPSTGGNTCVANFVHTTIFPNGPKDFEDKDDGRVIGNLVGLNLFDDYGLWCNYGQLHRDFTYCYSKGVFKRVLPAEEYAEIRWDQLEAGDVNFIKDFYYRLAHRVGELSHLADGSYAIAERWNLGEEYWGYAKNKLWSPFGYPVHHANEASAQVGSIVNCMFNRDCMTHTHINFIGSGLPLKLQREVAKELFGSEDAYDETKNYTPINDAKIKYAKWSLLRVCLHNAVTLCNWVWPMTVSPLKSRNYRGDLALEAKFFKAITGEEMTQEKLDLAAERIFTLHRAYTVKLMQTKDMRNEHDLICSWVFDKDPQIPVFTEGTDKMDRDDMHASLTMFYKEMGWDPQLGCPTRETLQRLGLEDIAADLAAHNLLPA | – | 5.09 | 10.2 ± 4.6 | – | – | – | – | – | – | 7.93 ± 1.3 | – | – |
| MTIKLIVGLANPGAEYAATRHNAGAWFVDLLAERLRAPLREEAKFFGYTSRVTLGGEDVRLLVPTTFMNLSGKAVAAMASFFRINPDEILVAHDELDLPPGVAKFKLGGGHGGHNGLKDIISKLGNNPNFHRLRIGIGHPGDKNKVVGFVLGKPPVSEQKLIDEAIDEAARCTEMWFTDGLTKATNRLHAFKAQ [P0A7D1] | 3.19 ± 0.081 | 6.09 ± 0.37 | 10.5 ± 0.85 | 5.126 ± 0.023 | – | 4.76 ± 0.084 | 5.04 ± 0.51 | 4.54 ± 0.08 | 4.81 ± 0.17 | 8.06 ± 0.66 | 5.91 ± 0.13 | 11.4 ± 0.29 |
| MLTTLIYRSHIRDDEPVKKIEEMVSIANRRNMQSDVTGILLFNGSHFFQLLEGPEEQVKMIYRAICQDPRHYNIVELLCDYAPARRFGKAGMELFDLRLHERDDVLQAVFDKGTSKFQLTYDDRALQFFRTFVLATEQSTYFEIPAEDSWLFIADGSDKELDSCALSPTINDHFAFHPIVDPLSRRIIAFEAIVQKNEDSPSAIAVGQRKDGEIYTADLKSKALAFTMAHALELGDKMISINLLPMTLVNEPDAVSFLLNEIKANALVPEQIIVEFTESEVISRFDEFAEAIKSLKAAGISVAIDHFGAGFAGLLLLSRFQPDRIKISQELITNVHKSGPRQAIIQAIIKCCTSLEIQVSAMGVATPEEWMWLESAGIEMFQGDLFAKAKLNGIPSIAWPEKK | – | 2.73 ± 2.2 | – | 5.85 ± 0.18 | – | – | 1.79 ± 0.32 | – | – | – | 0.443 | – |
